Results as given in patent publication US11708423B2, “Chimeric engulfment receptor molecules and methods of use” (CERO THERAPEUTICS, INC., priority 2017, dated 2023).

B1: CER21: Tim4 binding and transmembrane domains, TLR8 signaling domain; SEQ ID NO:88 (protein)
chain: MSKGLLLLWLVTELWWLYLTPAASEDTIIGFLGQPVTLPCHYLSWSQSRNSMCWGKGSCPNSKCNAELLRTDGTRIISRKSTKYTLLGKVQFGEVSLTISNTNRGDSGVYCCRIEVPGWFNDVKKNVRLELRRATTTKKPTTTTRPTTTPYVTTTTPELLPTTVMTTSVLPTTTPPQTLATTAFSTAVTTCPSTTPGSFSQETTKGSAFTTESETLPASNHSQRSMMTISTDIAVLRPTGSNPGILPSTSQLTTQKTTLTTSESLQKTTKSHQINSRQTILIIACCVGFVLMVLLFLAFLHHLFYWDVWFIYNVCLAKVKGYRSLSTSQTFYDAYISYDTKDASVTDWVINELRYHLEESRDKNVLLCLEERDWDPGLAIIDNLMQSINQSKKTVFVLTKKYAKSWNFKTAFYLALQRLMDENMDVIIFILLEPVLQHSQYLRLRQRICKSSILQWPDNPKAEGLFWQTLRNVVLTENDSRYNNMYVDSIKQY
modifications: CER21 chimeric engulfment receptor
B2: CER104: Tim4 binding and transmembrane domains, TLR8 primary and DAP12 secondary signaling domains; SEQ ID NO:133 (protein)
chain: MSKGLLLLWLVTELWWLYLTPAASEDTIIGFLGQPVTLPCHYLSWSQSRNSMCWGKGSCPNSKCNAELLRTDGTRIISRKSTKYTLLGKVQFGEVSLTISNTNRGDSGVYCCRIEVPGWFNDVKKNVRLELRRATTTKKPTTTTRPTTTPYVTTTTPELLPTTVMTTSVLPTTTPPQTLATTAFSTAVTTCPSTTPGSFSQETTKGSAFTTESETLPASNHSQRSMMTISTDIAVLRPTGSNPGILPSTSQLTTQKTTLTTSESLQKTTKSHQINSRQTILIIACCVGFVLMVLLFLAFLHHLFYWDVWFIYNVCLAKVKGYRSLSTSQTFYDAYISYDTKDASVTDWVINELRYHLEESRDKNVLLCLEERDWDPGLAIIDNLMQSINQSKKTVFVLTKKYAKSWNFKTAFYLALQRLMDENMDVIIFILLEPVLQHSQYLRLRQRICKSSILQWPDNPKAEGLFWQTLRNVVLTENDSRYNNMYVDSIKQYYFLGRLVPRGRGAAEAATRKQRITETESPYQELQGQRSDVYSDLNTQRPYYK
modifications: CER104 protein
B3: CER123: Tim4 binding and transmembrane domains, TLR2 primary and TRAF6 secondary signaling domains; SEQ ID NO:150 (protein)
chain: MSKGLLLLWLVTELWWLYLTPAASEDTIIGFLGQPVTLPCHYLSWSQSRNSMCWGKGSCPNSKCNAELLRTDGTRIISRKSTKYTLLGKVQFGEVSLTISNTNRGDSGVYCCRIEVPGWFNDVKKNVRLELRRATTTKKPTTTTRPTTTPYVTTTTPELLPTTVMTTSVLPTTTPPQTLATTAFSTAVTTCPSTTPGSFSQETTKGSAFTTESETLPASNHSQRSMMTISTDIAVLRPTGSNPGILPSTSQLTTQKTTLTTSESLQKTTKSHQINSRQTILIIACCVGFVLMVLLFLAFLHRFHGLWYMKMMWAWLQAKRKPRKAPSRNICYDAFVSYSERDAYWVENLMVQELENFNPPFKLCLHKRDFIPGKWIIDNIIDSIEKSHKTVFVLSENFVKSEWCKYELDFSHFRLFDENNDAAILILLEPIEKKAIPQRFCKLRKIMNTKTYLEWPMDEAQREGFWVNLRAAIKSMSLLNCENSCGSSQSESDCCVAMASSCSAVTKDDSVGGTASTGNLSSSFMEEIQGYDVEFDPPLESKYECPICLMALREAVQTPCGHRFCKACIIKSIRDAGHKCPVDNEILLENQLFPDNFAKREILSLMVKCPNEGCLHKMELRHLEDHQAHCEFALMDCPQCQRPFQKFHINIHILKDCPRRQVSCDNCAASMAFEDKEIHDQNCPLANVICEYCNTILIREQMPNHYDLDCPTAPIPCTFSTFGCHEKMQRNHLARHLQENTQSHMRMLA
modifications: CER123 protein

Legend:
Type in all cases: cell-based
[1] = system: H1975 lung adenocarcinoma cells; assay: LDH assay, H1975 cells, 48 hours co-culture with 1 μM Osimeritinib; conditions: E:T 1:1, 48 hours, CD4+ T cells
From the text: CER30 comprises a Tim4 binding domain, Tim4 transmembrane domain, and an engulfment signaling domain comprising a primary engulfment signaling domain comprising a TRAF2 signaling domain. CER30 has a polypeptide sequence as set forth in SEQ ID NO:96. CER110 has a polypeptide sequence of SEQ ID NO:125 and comprises a Tim4 binding domain, Tim4 transmembrane domain, and an engulfment signaling domain comprising a primary engulfment signaling domain comprising a TRAF6 signaling domain and a secondary engulfment signaling domain comprising a DAP12 signaling domain. CER112 has a polypeptide sequence of SEQ ID NO:128 and comprises a Tim4 binding domain, Tim4 transmembrane domain, and an engulfment signaling domain comprising a primary engulfment signaling domain comprising a TRAF6 signaling domain and a secondary engulfment signaling domain comprising a NFAM1 signaling domain. CER127 has a polypeptide sequence of SEQ ID NO:175 and comprises a Tim4 binding domain, Tim4 transmembrane domain, and an engulfment signaling domain comprising a primary engulfment signaling domain comprising a TRAF2 signaling domain and a secondary engulfment signaling domain comprising a TLR2 signaling domain. H1975 cells are more resistant to EGFR inhibitors, so Osimeritinib was used at slightly higher concentration. H1975 lung adenocarcinoma cells harboring an EGFR mutation were co-cultured with CER-expressing or mock-transduced (vector only) CD4+ T cells with 1 μM of Osimeritinib. After 48 hours of co-culture at a 1:1 effector:target cell ratio, T cells were washed away, and the number of viable H1975 cells was quantified using a calorimetric LDH assay (FIG. 57). Cell viability experiments were performed in triplicate and presented as % of control.

ALK+A549 cells = assay: Phagocytosis of ALK inhibitor treated A549 ALK+ cells by CER T cells (fluorescent microscopy); conditions: 12 hours; for phagocytosis of A549 cells: CD4 T cells
From the text: An ELM4-ALK translocation was introduced into A549 cells. […] CD4 T cells are modified to express CER104 or CER117 and labeled with CELLTRACE Violet. CER117 has a polypeptide sequence set forth in SEQ ID NO:144 and comprises a Tim4 binding domain, a Tim4 transmembrane domain, and an engulfment signaling domain comprising a primary engulfment signaling domain comprising a TLR8 signaling domain and a secondary engulfment signaling domain comprising a TRAF6 signaling domain. The ALK+A549 cells were then co-cultured with CER104- or CER117-expressing CD4+ T cells or Mock-transduced (vector only) T cells for 12 hours and images were obtained by fluorescent microscopy at 40× magnification (FIGS. 62A-E). White arrows indicate exemplary phagocytic events (pH rodo red cell targets within CELLTRACE Violet labeled CD4+ T cells).
CER123- and CER126-transduced CD4+ and CD8+ T cells were labeled with CELLTRACE Violet and co-cultured with the A549 ALK-positive cells. Co-cultured cells were imaged by fluorescent microscopy at 63× magnification after 12 hours (FIGS. 63A-F). White arrows indicate exemplary phagocytic events (pHrodo red targets within CELLTRACE Violet-labeled CD4 T cells).
Phagocytosis of Alectinib-treated ALK+A549 cells by CER-expressing T cells was also quantified. […] Bar graph in FIG. 64A represents quantification of percentage phagocytosis calculated as ((number of phagocytic target events)/(total number of effector cells))*100. Events were calculated from fluorescent 3×3 stitched images at 40×resolution after 12 hours of co-culture. Bar graph in FIG. 64B represents quantification of adjusted phagocytic index calculated as (median area ratio of target events in effector cells*phagocytosis). Events calculated from fluorescent 3×3 stitched images at 40×resolution after 12 hours of co-culture.
CER21−, CER27−, CER30−, CER108−, CER110−, CER112−, CER120−, CER123−, CER124−, CER126−, CER127−, or CER104-transduced CD4+ T cells were co-cultured with Alectinib-treated A549 cells at a 1:1 ratio for 12 hours. Phagocytic events were calculated from 3×3 stitched fluorescent microscopy images at 40X resolution. […] Images were obtained after 12 hours of co-culture. Yellow triangles indicate exemplary phagocytic events (pHrodo red targets within CELLTRACE violet labeled CD4+ T cells).
A time course study of phagocytic uptake of tumor cells by CER-transduced T cells was performed. CD4+ T cells were transduced with a lentiviral vector comprising CER122 nucleic acid. Mock-transduced (vector only) CD4+ T cells were used as control. CER122-transduced T cells were labeled with CELLTRACE violet and co-cultured with pHrodo red labeled A549 ALK+ lung adenocarcinoma cells. Fluorescent microscopy images were obtained at 4, 8, and 16 hours co-culture (FIG. 72C), and % phagocytosis (FIG. 72A) and phagocytic index (FIG. 72B) were calculated.

A549 ALK+ cells = assay: MTT viability and bright field microscopy of A549 ALK+ cells with CER T cells and ALK inhibitor; conditions: for in vitro growth/viability of A549 ALK+ cells (MTT): Alectinib or Crizotinib 250 nM-10 μM, E:T 2:1 and 5:1
From the text: An […] translocation was introduced into A549 cells. […] CER104 has a polypeptide sequence set forth in SEQ ID NO:133 and comprises a Tim4 binding domain, Tim4 transmembrane domain, and an engulfment signaling domain comprising a primary engulfment signaling domain comprising a TLR8 signaling domain and a secondary engulfment signaling domain comprising a DAP12 signaling domain. CER122 has a polypeptide sequence set forth in SEQ ID NO:149 and comprises a Tim4 binding domain, Tim4 transmembrane domain, and an engulfment signaling domain comprising a primary engulfment signaling domain comprising a TLR2 signaling domain and a secondary engulfment signaling domain comprising a DAP12 signaling domain. Effector:target (E:T) cell ratio for co-culture was 2:1 or 5:1. […] Cell viability experiments were performed in triplicates and presented as % of control. Best-fit curves were generated from raw data using linear regression models.
CER21−, CER108−, CER104−, and CER129-transduced CD4+ T cells were tested for their ability to kill A549 ALK+ cells in the presence of ALK inhibitor. CD4+ T cells were transduced with a lentiviral vector comprising a CER21, CER108, CER104, CER129, CER27, CER120, CER122, CER123, CER124, or CER126 nucleic acid. […] After 48 hours of co-culture, T cells were washed away and the number of viable A549 ALK+ cells was quantified using a calorimetric MTT assay (FIGS. 67A-B). Cell viability experiments were performed in triplicates and presented as % of control. Bright field microscopy images were also obtained from A549 ALK+co-culture experiments. […] Arrow indicates cluster of dead A549 ALK+ cells surrounded by phagocytic CER104+ T cells. […]

Molecule | killing of H1975 cells (LDH) [1] | phagocytosis of A549 cells (ALK+A549 cells; 1 μM Alectinib) | phagocytosis of A549 cells (ALK+A549 cells; 1 μM Crizotinib) | bright field microscopy of A549 ALK+ co-culture (A549 ALK+ cells; Alectinib 3.7 μM, 48 hours, vs mock-transduced T cells) | in vitro growth/viability of A549 ALK+ cells (MTT) (A549 ALK+ cells; 48 hours) | in vitro growth/viability of A549 ALK+ cells (MTT) (A549 ALK+ cells; 72 hours) | phagocytic elimination of ALK+A549 cells (ALK+A549 cells; 2.5 μM Alectinib)
B1 | synergistic killing of H1975 lung adenocarcinoma cells upon EGFR inhibition | – | – | – | – | – | –
B2 | synergistic killing of H1975 lung adenocarcinoma cells upon EGFR inhibition | phagocytosed A549 cells | phagocytosed A549 cells | cluster of dead A549 ALK+ cells surrounded by phagocytic CER104^+ T cells | synergistically suppress in vitro growth of NSCLC cells harboring ALK rearrangements | synergistically suppress in vitro growth of NSCLC cells harboring ALK rearrangements | –
B3 | synergistic killing of H1975 lung adenocarcinoma cells upon EGFR inhibition | – | – | – | – | – | phagocytic elimination of ALK+A549 cells
